For this assay, the target named is Mycobacterium tuberculosis DnaK, wild type, full length (Mycobacterium tuberculosis, UniProt P9WMJ9 1-625). Kind of assay: ITC.

Our source for the Kd values is publication PMC10803776 (2024).

B1: Mycobacterium tuberculosis GrpE, wild type, full length (natural protein)
chain: MTDGNQKPDGNSGEQVTVTDKRRIDPETGEVRHVPPGDMPGGTAAADAAHTEDKVAELTADLQRVQADFANYRKRALRDQQAAADRAKASVVSQLLGVLDDLERARKHGDLESGPLKSVADKLDSALTGLGLVAFGAEGEDFDPVLHEAVQHEGDGGQGSKPVIGTVMRQGYQLGEQVLRHALVGVVDTVVVDAAELESVDDGTAVADTAENDQADQGNSADTSGEQAESEPSGS
Broadly, the Kd is the equilibrium constant for the complex coming apart. Molecule B1 came in with a dissociation constant (Kd) of 360 nM.
